Consider 24 variants from the supplement of paper PMC7125110.

B1: glmS ribozyme (parent)
chain: AUAAAAGCGCCAGAACUACAGAAAUGUAGUUGACGAGGAGGAGGUUUAUCGAAUUUUCGGCGGAUGCCUCCAAA

What all share (conditions): with glucosamine-6-phosphate
Variants of B1 are the subject of data set [1]. Kind of data set: self-cleavage kobs at 640 uM GlcN6P; higher = faster cleavage; RNA array. In short, it runs like this:
(§1)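 Barcoded ribozyme variants on sequenced MiSeq chips were transcribed in situ by E. coli RNA polymerase and followed at 37 °C through a hybridised Cy3 probe. Glucosamine-6-phosphate at 40 μM to 10 mM in HEPES/KCl/Mg(OAc)2 buffer was flowed in, and tiles were imaged over ~14 h. Signals were normalised to baseline and to non-cleaving reference variants, and per-tile medians were fit to one- or two-exponential decays to give kobs. Weighted Michaelis–Menten fits across concentrations gave kcat and KM.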

In data set [2] the parent is B1. Kind of data set: self-cleavage kobs at 2500 uM GlcN6P; higher = faster cleavage; RNA array. In short, it runs like this:
as §1

Data set [3] covers variants of B1. Description: self-cleavage kobs at 10000 uM GlcN6P; higher = faster cleavage; RNA array. In short, it runs like this:
as §1

± gives the standard error. Fewer inactive variants are shown than the library holds.

As for AUAAAAUAGCCAAAACUACAGAAAUGUAGUUGACGAGGAGGAGGUUUAUCGAAUUUUCGGCGGAUGCCUCCAAA [G7U C8A G13A], in data set [1], the “self-cleavage kobs at 640 uM GlcN6P” value is under 1e-05 s⁻¹.

In the case of AUAAAUGCGCCAGAACUACAGAAAUGUAGUUGCCGAGGUGGAGGUUUAUCGAAUUUUCGGCGGAUGCCUCUAAA [A6U A33C A39U C71U], the “self-cleavage kobs at 640 uM GlcN6P” value in data set [1] is under 1e-05 s⁻¹.

In the case of AUAAAAGCGCCAGAACUACAGAAAUGUAGUUGACGAGGAGGAGCUUUAUCGGAGUUUCGGCGGAUGCCUCCAAA [G44C A52G U54G], the “self-cleavage kobs at 640 uM GlcN6P” value in data set [1] is under 1e-05 s⁻¹. For the same variant, in data set [2], the “self-cleavage kobs at 2500 uM GlcN6P” value was under 1e-05 s⁻¹.

For AUAAAAGCGCCAUAACUACAGAAAUGUAGUUGACGAGGAUGAGGUUUAUCGAAUUUUCGGCGCAUGCCUCCAAA [G13U G40U G63C], the “self-cleavage kobs at 640 uM GlcN6P” value in data set [1] was under 1e-05 s⁻¹. Besides, in data set [2], the “self-cleavage kobs at 2500 uM GlcN6P” value was under 1e-05 s⁻¹.

Consider AUAAAAGCGCGAGGACUACAGAAAUGUAGUUGAAGAGGAGUAGGUUUACCGAAUUUUCGGCGGAUGCCUCCAAA [C11G A14G C34A G41U U49C], for which the “self-cleavage kobs at 640 uM GlcN6P” value in data set [1] is under 1e-05 s⁻¹.

For AUAAAAGCGCCAGAACUACAGAAAUGUACUUGACGAGGAGGAGGUUUAUCGAAUUAUCGGCGGAUGCCUCAAAA [G29C U56A C71A], the “self-cleavage kobs at 640 uM GlcN6P” value in data set [1] was found to be 4.27e-05 ± 1.8e-05 s⁻¹.

Consider AUAAAAGCGCCUUAACUACAGAAAUGUAGUUUACGAGGAGGAGGUUUAUCGAAUUUUCGGCGGGUGCCUCCAAA [A12U G13U G32U A64G], for which, in data set [1], the “self-cleavage kobs at 640 uM GlcN6P” value is under 1e-05 s⁻¹.

For AUAAAAGCGCCAGUACUACAGAAAUGUAGUUGACGAGGAGGAGGUGUAUCGAAUUUUCGACGGAUGCCUCAAAA [A14U U46G G60A C71A], the “self-cleavage kobs at 640 uM GlcN6P” value in data set [1] is under 1e-05 s⁻¹.

For the variant AUAAAAGCGCCAGAACUACAGAAAUGUAGUUUACGAGGAGGAGGUUUAUCGUAUUUUUGGUGGAUGCCUCCAAA [G32U A52U C58U C61U], the “self-cleavage kobs at 640 uM GlcN6P” value in data set [1] was under 1e-05 s⁻¹. For the same variant, in data set [2], the “self-cleavage kobs at 2500 uM GlcN6P” value is under 1e-05 s⁻¹.

Consider AUAAAAGCGCCAGAACUACAGAAAUGUAGUUGACGCAGAGGAGGUUUAUCGAAUUUUCGGCGGGUGCCUCCAAA [A36C G37A A64G], for which, in data set [1], the “self-cleavage kobs at 640 uM GlcN6P” value is under 1e-05 s⁻¹.

As for AUAAAAGCGCCAGCACUACAGAAAUGUAGUUGACGUGAAGGAGGUUUAUCGAAUUUUCGGCGGAUGCCACCAAA [A14C A36U G38A U69A], the “self-cleavage kobs at 640 uM GlcN6P” value in data set [1] came out at 7.64e-05 ± 1.8e-05 s⁻¹.

As for AUAAAAGCGCCAGAACUACAGAAAUGUAGUAGACGAGGAGGAGGUUUAUCGAAUUGUGGGCGGAUGCCUCCAAA [U31A U56G C58G], in data set [1], the “self-cleavage kobs at 640 uM GlcN6P” value is 9.04e-05 ± 1.6e-05 s⁻¹. Also, in data set [2], the “self-cleavage kobs at 2500 uM GlcN6P” value stood at 0.000252 ± 5e-05 s⁻¹.

For the variant AUAAAAGCGCCAGAACUACAGAAAUGUAGUUGACGUGGAGGAGGUUUAUCGAGUUUUUGGCGGAUGGCUACAAA [A36U A53G C58U C67G C70A], in data set [1], the “self-cleavage kobs at 640 uM GlcN6P” value worked out at 0.000184 ± 4.8e-05 s⁻¹. In data set [2], the “self-cleavage kobs at 2500 uM GlcN6P” value is 0.00115 ± 0.00026 s⁻¹.

In the case of AUAAAAGCUCCAGAACUACAGAAAUGUAGUUGACAAGGAGGAGUUUUAUCGACUUUUCGGCGGAUGCCUCGAAA [G9U G35A G44U A53C C71G], in data set [1], the “self-cleavage kobs at 640 uM GlcN6P” value is under 1e-05 s⁻¹. Moreover, the “self-cleavage kobs at 2500 uM GlcN6P” value in data set [2] is under 1e-05 s⁻¹.

AUAAAAGCGCCAGAUCUACAGAAAUGUAGUUAACGAGGAGGAGGUGUAUGGAAUUUUCGGCGGAUGCCUCCAAA [A15U G32A U46G C50G]: the “self-cleavage kobs at 640 uM GlcN6P” value in data set [1] turned out to be 8.2e-05 ± 2.3e-05 s⁻¹.

On to AUAAAAUCGCCAGAACUACAGAAAUGUAUUUGACGAGGAGGAGGUUUCUCGAAUUUUCGGCGGAUGCCUCCAAA [G7U G29U A48C], for which the “self-cleavage kobs at 640 uM GlcN6P” value in data set [1] was under 1e-05 s⁻¹. Moreover, in data set [2], the “self-cleavage kobs at 2500 uM GlcN6P” value was under 1e-05 s⁻¹. For the same variant, the “self-cleavage kobs at 10000 uM GlcN6P” value in data set [3] was under 1e-05 s⁻¹.

With AUAAAAGCGCCAGAACUACAGAAAUGUAGUUGACGAGGUGGAGGUUUAUCGAAUUUUCGGCGGAUGAUUCCAAA [A39U C67A C68U], in data set [1], the “self-cleavage kobs at 640 uM GlcN6P” value amounted to 3.93e-05 ± 1.2e-05 s⁻¹. Besides, the “self-cleavage kobs at 2500 uM GlcN6P” value in data set [2] turned out to be 0.000112 ± 3e-05 s⁻¹.

Turning to AUAAAAGUGCCAGAACUACAGAAAUGUAGUUGACGAGGAGGAGGUUUAUCGAAUUUUUGGCGGAUGCCUCCAAA [C8U C58U], the “self-cleavage kobs at 640 uM GlcN6P” value in data set [1] is under 1e-05 s⁻¹.

Take AUAAAAGCGCCAGAACUACAGAAAUGUAGUUGACGAGGAGGAGUUUUGUGGAAUUUUCGGCGGAUGCCUCCAAA [G44U A48G C50G]: in data set [1], the “self-cleavage kobs at 640 uM GlcN6P” value is under 1e-05 s⁻¹. Further, the “self-cleavage kobs at 2500 uM GlcN6P” value in data set [2] is under 1e-05 s⁻¹. Further, in data set [3], the “self-cleavage kobs at 10000 uM GlcN6P” value was under 1e-05 s⁻¹.

For the variant AUAAAGGCGCCAGAACUACAGAAAUGUAGUUGACGAGGAGGAGGUUUAUCGAGUUUUCGGAGGAUGCCUCCAAA [A6G A53G C61A], the “self-cleavage kobs at 640 uM GlcN6P” value in data set [1] is under 1e-05 s⁻¹. Further, the “self-cleavage kobs at 2500 uM GlcN6P” value in data set [2] is under 1e-05 s⁻¹.

With AUAAACGCGCCAAAACUACAGAAAUGUAGUUGACGAGAAGGAGGUUUAUCGAAUUUUUGGCGGAUGCCUCCAAA [A6C G13A G38A C58U], the “self-cleavage kobs at 640 uM GlcN6P” value in data set [1] is under 1e-05 s⁻¹.

In the case of AUAAAAGGGCCAGAACUACAGAAAUGUAGUUGACGAGGAGAAGGUUUAUCGUAUUUUCGGCGGAUGCCUCCAAA [C8G G41A A52U], the “self-cleavage kobs at 640 uM GlcN6P” value in data set [1] was under 1e-05 s⁻¹. Moreover, the “self-cleavage kobs at 2500 uM GlcN6P” value in data set [2] was under 1e-05 s⁻¹.

On to AUAAAAGCGCCAGAACUACAGAAAUGUAGUUGACGAUGAGGCGGUUUAUCGAAUUGUCGGCGGAUGCCUCCAAA [G37U A42C U56G], for which the “self-cleavage kobs at 640 uM GlcN6P” value in data set [1] was under 1e-05 s⁻¹.

Consider AUAAAAACGCGAGAACUACAGAAAUGUAGUUGACGAGGAUGAGGUUUAUCGAAUUUUCGGCGGAUGCCUCCAAA [G7A C11G G40U], for which, in data set [1], the “self-cleavage kobs at 640 uM GlcN6P” value was under 1e-05 s⁻¹.
